From the supplement of paper PMC7877785
± gives the uncertainty stated by the source.

Assay: self-splicing fitness, log relative to wild type (ln ratio); higher = more splicing; Tetrahymena group I intron in knt gene, E. coli kanamycin selection, DiMSum; sequences stand for … in CUCUCU…GGAGGGAAAAGUUAUCAGGCAUGCACCUGGUAGCUAGUCUUUAAACCAAUAGAUUGCAUCGGUUUAAAAGGCAAGACCGUCAAAUUGCGGGAAAGGGGUCAACAGCCGUUCAGUACCAAGUCUCAGGGGAAACUUUGAGAUGGCCUUGCAAAGGGUAUGGUAAUAAGCUGACGGACAUGGUCCUAACCACGCAGCCAAGUCCUAAGUCAACAGAUCUUCUGUUGAUAUGGAUGCAGUUCACAGACUAAAUGUCGGUCGGGGAAGAUGUAUUCUUCUCAUAAGAUAUAGUCGGACCUCUCCUUAAUGGGAGCUAGCGGAUGAAGUGAUGCAACACUGGAGCCGCUGGGAACUAAUUUGUAUGCGAAAGUAUAUUGAUUAGUUUUGGAGUACUCGUGGUCG
Procedure, shortened: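 Fitness was computed with DiMSum as the error-weighted combination of replicate fold changes, kanamycin versus none, each normalised to wild type. The library randomised all eight intron nucleotides of the P1ex region, with the intron placed in the knt kanamycin-resistance gene on pET-22b(+) in E. coli BL21(DE3). Six replicate transformations were grown overnight at 37°C or 30°C on LB agar with or without 25 μg/mL kanamycin, plus 100 μg/mL carbenicillin, 50 μM IPTG and 0.2% rhamnose. Pooled colonies were amplicon-sequenced on an Illumina HiSeq 2500.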

Row | Sequence | self-splicing fitness (ln) (30 °C) | self-splicing fitness (ln) (37 °C)
1 | GGGCAGCAAUAUUACGGUGG | -3.42 ± 0.17 | -1.86 ± 0.16
2 | GGGCAGCAAUAUUACGUAUA | -1.85 ± 0.13 | -1.1 ± 0.14
3 | GGGCAGCAAUAUUACGUGCG | -0.439 ± 0.057 | -0.235 ± 0.077
4 | GGGCAGCAAUAUUACGUUAG | -1.81 ± 0.093 | -0.462 ± 0.13
5 | GGGCAGCAAUAUUACGUUAU | -1.68 ± 0.097 | -0.345 ± 0.12
6 | GGGCAGCAAUAUUACGUUCA | -0.593 ± 0.075 | -0.158 ± 0.12
7 | GGGGAGCAAUAUUACGAAAG | -3.12 ± 0.44 | 
8 | GGGGAGCAAUAUUACGAAUU | -1.24 ± 0.19 | -0.992 ± 0.25
9 | GGGGAGCAAUAUUACGACUA | -0.712 ± 0.24 | -0.539 ± 0.29
10 | GGGGAGCAAUAUUACGAUCA | -1.45 ± 0.18 | -0.807 ± 0.19
11 | GGGGAGCAAUAUUACGCACU | -3.29 ± 0.36 | 
12 | GGGGAGCAAUAUUACGCCUG | -2.33 ± 0.15 | -0.491 ± 0.13
13 | GGGGAGCAAUAUUACGCGAG | -1.54 ± 0.43 | -0.692 ± 0.24
14 | GGGGAGCAAUAUUACGGACG | -2.73 ± 0.32 | -1.21 ± 0.28
15 | GGGGAGCAAUAUUACGGAGC | -2.66 ± 0.33 | -1.79 ± 0.2
16 | GGGGAGCAAUAUUACGGAGG |  | -1.4 ± 0.35
17 | GGGGAGCAAUAUUACGGAUU | -3.35 ± 0.28 | -2.15 ± 0.23
18 | GGGGAGCAAUAUUACGGCUC |  | -0.173 ± 0.34
19 | GGGGAGCAAUAUUACGGUGA | -2.23 ± 0.36 | 
20 | GGGGAGCAAUAUUACGGUGG | -3.04 ± 0.25 | -2.67 ± 0.24
21 | GGGGAGCAAUAUUACGGUGU | -3.87 ± 0.37 | -1.37 ± 0.22
22 | GGGGAGCAAUAUUACGUGUA | -3.7 ± 0.31 | -2.23 ± 0.22
23 | GGGGAGCAAUAUUACGUUAU | -3.58 ± 0.18 | -2.14 ± 0.16

Row | Sequence | self-splicing fitness (ln) (30 °C) | self-splicing fitness (ln) (37 °C)
24 | GGGUAGCAAUAUUACGAAUG | -2.18 ± 0.25 | -1.32 ± 0.4
25 | GGGUAGCAAUAUUACGACCG | -1.03 ± 0.18 | -0.642 ± 0.33
26 | GGGUAGCAAUAUUACGAGCU | -0.974 ± 0.17 | -1.33 ± 0.19
27 | GGGUAGCAAUAUUACGAGGG | -3.42 ± 0.33 | -2.55 ± 0.33
28 | GGGUAGCAAUAUUACGAUAA | -1.67 ± 0.13 | 0.147 ± 0.16
29 | GGGUAGCAAUAUUACGAUCC | -2.2 ± 0.37 | -1.47 ± 0.5
30 | GGGUAGCAAUAUUACGAUGU | -0.794 ± 0.1 | 0.357 ± 0.15
31 | GGGUAGCAAUAUUACGCAGU | -1.34 ± 0.16 | -1.02 ± 0.11
32 | GGGUAGCAAUAUUACGCAUU | -0.339 ± 0.094 | -0.245 ± 0.1
33 | GGGUAGCAAUAUUACGCCAC |  | -1.72 ± 0.48
34 | GGGUAGCAAUAUUACGCGAA | -0.995 ± 0.16 | -0.21 ± 0.13
35 | GGGUAGCAAUAUUACGGAGU | -2.36 ± 0.22 | -1.21 ± 0.2
36 | GGGUAGCAAUAUUACGGAUA | -1.74 ± 0.25 | -1.08 ± 0.29
37 | GGGUAGCAAUAUUACGGCAC | -0.322 ± 0.14 | -0.0485 ± 0.18
38 | GGGUAGCAAUAUUACGGCAG | -3.66 ± 0.4 | -2.62 ± 0.4
39 | GGGUAGCAAUAUUACGGGCA | -0.435 ± 0.25 | -0.58 ± 0.26
40 | GGGUAGCAAUAUUACGGUAG |  | -1.91 ± 0.23
41 | GGGUAGCAAUAUUACGGUCU | -0.845 ± 0.08 | -0.011 ± 0.11
42 | GGGUAGCAAUAUUACGUAGG | -2.74 ± 0.24 | -1.5 ± 0.2
43 | GGGUAGCAAUAUUACGUCCG | -0.212 ± 0.15 | -0.15 ± 0.19
44 | GGGUAGCAAUAUUACGUGCC | -0.954 ± 0.48 | 
45 | GGGUAGCAAUAUUACGUGGG | -4.13 ± 0.32 | -2.29 ± 0.19
